The supplement of paper PMC12042874
± gives the uncertainty stated by the source.

Assay: amyloid nucleation score (Sup35N fusion, yeast selection) (log enrichment); library NNK3; higher = more nucleation; inactive = no reads after selection
How it was run: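 After 24 hours of induction with 100 μM copper sulfate, psi-negative yeast expressing peptides of 20 random codons fused to Sup35N were grown for 7 days at 30°C on medium lacking adenine and uracil. Input and output plasmid inserts were sequenced with Illumina, and sequences with under 100 input reads were discarded. Scores for nucleation are the DiMSum log enrichment of output over input reads, centred on the mode score of non-aggregating sequences.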

Substance	amyloid nucleation score
SWYAKGFI	inactive
GLGYFPIWASLRTKLVLILG	inactive
VINCSAHTEFRGLNFRVTCT	inactive
FGVSIVRHQVLLCGLSCISL	1.85 ± 0.091
SIADRMHFLWVGEGGTRDYA	inactive
YKDRR	inactive
IYGSASNYMFILGIDRSRWA	1.14 ± 0.15
MYSHLNTCTTAKPQVFCSKL	inactive
HLAHLSRSLSVKSSSVMKGH	inactive
STSSLASNYRDFSIR	inactive
EVVVELIMLS	inactive
RWPEPFSWFRFDYQIRDVVF	inactive
AQEYRMQHRLGGL	inactive
YVNLHPMLATAAIYVNSSAG	inactive
VNSGVGVSVRRASSLCLCVR	inactive
NSMSKVKMLVRSISTIEEVK	inactive
RRSNSHYM	inactive
TQLLMEFSTVSALDITPCDG	inactive
SFYYLVKLYSLSSSIRLFRS	inactive
QNCIHKRRSLGSTCATEWDV	-0.399 ± 1
ISFRYHIYRSNCSQMNGRLT	inactive
KFYDSISRLQNERGPVIFPR	inactive
IVSMSCGWFRGYRVDDGYM	1.38 ± 0.083
VRGLDVCTDEFCVQLDYMW	inactive
IYCPYVGCVMSLGTGCM	1.06 ± 0.19
CNVRSFRFRCSGSPHSARSS	inactive

Substance	amyloid nucleation score
YNVTFQSPVTSWDNHLIMA	inactive
AWVDWKWRNGRSLAS	inactive
ELRLHNFTFRLVASFWLLRV	inactive
YWMPIDLGFSSLNWPESSRS	inactive
YRHICKYCFGQPVGHH	-1.1 ± 1.9
IIIVILLQNWTSVRAVKPIV	inactive
GHGLGAAYCRIVLKRETLTN	inactive
KRDEVVKFLLDGVGASGYNA	inactive
FNRGKRCNSIRSLVPCNSPL	inactive
CLFGHGY	inactive
MCAHVNVMRNSFYRRNAPNY	0.603 ± 0.16
FQLWVKRTYNAEGNLYSPDD	inactive
VLFRKCQCVRSHLI	inactive
RVLNS	inactive
LDGRYKYILFLLPLCRW	inactive
LMANVGPAWLQSFAIRGTSH	inactive
LLTVEVPLWKIFDAML	inactive
SDIAVLRRLNCMKVKLKLWH	inactive
TPLGLEWYSSREWGISNLWT	inactive
WKATNNAASVFGDLYGYYAN	inactive
ITYFLWAVFYDGFSMSFFVA	inactive
TVSKANWVLLEFLTFCGMI	1.74 ± 0.096
VGASQRVYSLLST	inactive
DKDRVVSCMMTLLLSVGCAV	inactive
MCGLVTFWRALRGNRGRY	inactive
STTIGF	inactive

Substance	amyloid nucleation score
FIMRSSSC	inactive
CLNFFPSNSWILFILMIVQK	inactive
LGSMAINCNERCITWCHRFI	0.668 ± 0.25
WQSRTKP	inactive
MEFHYWTGVCQVSK	inactive
DGNFNQRYAHLDRSGCWL	inactive
PNVMNNFVCITDPIPVGSMW	inactive
EVLSMYRCSNVFLWFTKFIA	inactive
LDLLHFGYFIYFDEL	inactive
DVGLAVNTSHLWSYT	inactive
FLLTYVNIRGMQP	1.49 ± 0.099
ILLRPPGWSRQWSVRWGNYP	inactive
NCNTVKYGMFGAWSNSAV	0.313 ± 0.18
SYNFVNQYVWKEDRNTKVAI	inactive
FLMCVNFVCCIIMCCGTIWG	inactive
YICVMWMYSCKLSLPMWHPR	inactive
RNSKWWLYLKSARSCYLGWW	inactive
FWSHLTLTSSSFKFGTVSR	inactive
YYCMFVGD	1.24 ± 0.15
IVKRFWLNGSFTFSFCNGNG	2.09 ± 0.09
SYMQAWVTNCMSVFSVVMKQ	inactive
STHGWGGWLSVYIGNP	inactive
HRKMHDT	inactive
SSVYCL	-0.781 ± 1.3
LDFRLFGFPDKNEHYGGEYK	inactive
EMPLF	inactive
